Test results taken from patent publication US20240255495 (UNIVERSITY OF PITTSBURGH-OF THE COMMONWEALTH SYSTEM OF …, published 2024).

How the values were obtained:
[1] = target: T1, PTK7 (protein tyrosine kinase 7), recombinant (UniProt Q13308 Q13308:31-704)
T1 sequence: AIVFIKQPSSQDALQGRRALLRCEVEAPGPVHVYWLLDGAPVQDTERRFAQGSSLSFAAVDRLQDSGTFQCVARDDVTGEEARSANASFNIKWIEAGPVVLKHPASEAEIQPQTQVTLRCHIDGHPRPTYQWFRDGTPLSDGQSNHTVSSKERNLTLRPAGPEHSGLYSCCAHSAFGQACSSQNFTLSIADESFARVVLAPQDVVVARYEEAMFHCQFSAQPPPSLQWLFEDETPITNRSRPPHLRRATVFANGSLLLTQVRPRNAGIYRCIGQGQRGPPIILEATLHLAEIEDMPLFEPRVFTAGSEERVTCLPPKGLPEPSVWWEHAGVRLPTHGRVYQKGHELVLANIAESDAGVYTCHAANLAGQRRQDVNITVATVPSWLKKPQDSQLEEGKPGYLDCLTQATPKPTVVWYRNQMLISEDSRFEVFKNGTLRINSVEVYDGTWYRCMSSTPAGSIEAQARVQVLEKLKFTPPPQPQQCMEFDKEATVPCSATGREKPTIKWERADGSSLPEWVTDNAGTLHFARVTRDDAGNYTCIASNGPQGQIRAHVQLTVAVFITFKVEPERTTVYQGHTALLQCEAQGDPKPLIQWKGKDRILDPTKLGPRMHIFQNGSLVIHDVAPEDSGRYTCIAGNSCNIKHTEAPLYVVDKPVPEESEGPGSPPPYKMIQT

thrombin = thrombin (UniProt P00734;P00734 P00734:328-363,P00734:364-622); test: FP

Binder	binding result [1]	Kd (thrombin) [nM]
ATCTAACTGCTGCGCCGCCGGGAAAATACTGTACGGTTAGA (ssDNA, T27 conjugated to pyridinium oxime catalyst PyOx) [sgc8c(27)-PyOx]	binds	–
GGTTGGTGTGGTTGG (ssDNA) [TBA unmodified]	–	220
